Target: spop_human SPOP (UniProt O43791)
Sequence (O43791 whole entry): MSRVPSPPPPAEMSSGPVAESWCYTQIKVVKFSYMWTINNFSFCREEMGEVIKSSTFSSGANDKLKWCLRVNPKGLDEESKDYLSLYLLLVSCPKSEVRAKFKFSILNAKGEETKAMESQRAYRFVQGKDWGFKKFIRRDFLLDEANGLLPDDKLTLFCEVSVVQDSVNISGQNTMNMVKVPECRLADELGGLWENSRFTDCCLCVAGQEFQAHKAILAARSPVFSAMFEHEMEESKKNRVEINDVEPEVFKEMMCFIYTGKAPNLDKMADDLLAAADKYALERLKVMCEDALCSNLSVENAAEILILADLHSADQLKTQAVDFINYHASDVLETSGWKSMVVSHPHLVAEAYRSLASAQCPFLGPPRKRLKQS

Row | Substance | effect of a mutation on the interaction
1 | Nuclear receptor coactivator 3 (Homo sapiens), Q9Y6Q9 S101A;S102A | disrupting interaction
2 | Nuclear receptor coactivator 3 (Homo sapiens), Q9Y6Q9 S102A | disrupting interaction

Source: IntAct's records for PubMed 21577200
